In patent US20210246166A1 (Bayer, published 2021):
Numbered stars: 1 amine (or outer) side, 2 acyl side, 3 side chain; on linkers, the order of the positions; unused ones are H or OH. Bridge positions count the residues as written; N and C are the ends. Square brackets hold non-standard residues; d marks the D form. Ends that are not written are not given here. * marks the point of attachment. Freidinger's Lactam = (2S)-2-[(3R)-3-amino-2-oxopyrrolidin-1-yl]-4-methylpentanoic acid (Freidinger's lactam), CC(C)C[C@@H](C(=O)[*:2])N1CC[C@@H](N[*:1])C1=O; X10 = (2R)‑2‑amino‑3‑(trifluoromethylsulfanyl)propanoic acid, O=C([C@H](CSC(F)(F)F)N[*:1])[*:2]; X15 = (3S)‑2‑azaspiro(4.4)nonane‑3‑carboxylic acid, O=C([C@@H]1CC2(CCCC2)CN1[*:1])[*:2]; (R)‑Pyrrolidine‑3‑acetic acid = O=C(C[C@H]1CCN([*:1])C1)[*:2]; Ida = iminodiacetic acid, O=C(CN(CC(=O)[*:3])[*:1])[*:2]; Pro(3S,4R-methano) = O=C(O)[C@H]1NC[C@@H]2C[C@@H]21; Benzoyl(3-COOH) = O=C(O)c1cccc(C(=O)*)c1; Benzoyl(4-COOH) = O=C(O)c1ccc(C(=O)*)cc1; Oic = O=C(O)[C@@H]1C[C@@H]2CCCC[C@@H]2N1; tBuAla = CC(C)(C)C[C@H](N)C(=O)O; Pen = CC(C)(S)[C@H](N)C(=O)O; Orn = NCCC[C@H](N)C(=O)O; PEG2 = NCCOCCOCCC(=O)O; Sar = CNCC(=O)O

T1: recombinant rat MASP1 active protease (amino acids 302-704, C-terminal His Tag) (rat, UniProt Q8CHN8 302-704)
T1 sequence: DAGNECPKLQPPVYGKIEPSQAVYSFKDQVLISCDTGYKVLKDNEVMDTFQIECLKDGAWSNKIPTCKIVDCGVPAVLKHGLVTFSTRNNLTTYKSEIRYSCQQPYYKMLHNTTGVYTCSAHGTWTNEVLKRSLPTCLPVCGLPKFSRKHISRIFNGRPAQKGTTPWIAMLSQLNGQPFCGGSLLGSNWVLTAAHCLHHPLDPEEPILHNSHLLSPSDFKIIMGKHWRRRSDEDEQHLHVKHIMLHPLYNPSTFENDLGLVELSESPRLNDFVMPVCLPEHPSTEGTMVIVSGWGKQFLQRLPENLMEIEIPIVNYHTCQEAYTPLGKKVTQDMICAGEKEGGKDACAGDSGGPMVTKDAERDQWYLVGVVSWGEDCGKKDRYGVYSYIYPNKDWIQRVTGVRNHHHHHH


Columns and labels:
[1] = molecular target: T1, recombinant rat MASP1 active protease …; experiment: cell-based or functional assay
[2] = molecular target: recombinant rat MASP2 active protease (amino acids 296-685, C-terminal His Tag) (rat, UniProt Q9JJS8 296-685); experiment: cell-based or functional assay
recombinant rat MASP2 active protease (amino acids 296-685, C-terminal His Tag), sequence (Q9JJS8 other isoform, or with tags, fused parts or gaps limits assumed): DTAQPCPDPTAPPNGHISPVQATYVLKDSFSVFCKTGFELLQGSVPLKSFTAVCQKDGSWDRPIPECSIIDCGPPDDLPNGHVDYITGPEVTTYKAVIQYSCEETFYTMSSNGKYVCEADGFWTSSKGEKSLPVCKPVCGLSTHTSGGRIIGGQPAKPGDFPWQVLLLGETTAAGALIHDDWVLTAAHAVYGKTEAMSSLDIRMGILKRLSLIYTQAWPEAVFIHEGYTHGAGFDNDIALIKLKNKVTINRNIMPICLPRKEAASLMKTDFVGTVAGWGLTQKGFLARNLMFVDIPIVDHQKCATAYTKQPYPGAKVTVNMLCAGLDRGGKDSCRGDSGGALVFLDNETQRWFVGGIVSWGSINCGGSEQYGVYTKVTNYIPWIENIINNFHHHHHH

Row | rat MASP1 IC50 [1] | rat MASP2 IC50 [2] | Binder
1 | 485 nM | 253 nM | [Sar]ICSRS[tBuAla]P[Pro(3S,4R-methano)]I[Pen]IPD-OH (disulfide 3-11; N-terminus assumed; SMILES CC[C@H](C)[C@H](NC(=O)CNC)C(=O)N[C@H]1CSSC(C)(C)[C@@H](C(=O)N[C@H](C(=O)N2CCC[C@H]2C(=O)N[C@@H](CC(=O)O)C(=O)O)[C@@H](C)CC)NC(=O)[C@H]([C@@H](C)CC)NC(=O)[C@@H]2[C@H]3C[C@H]3CN2C(=O)[C@@H]2CCCN2C(=O)[C@H](CC(C)(C)C)NC(=O)[C@H](CO)NC(=O)[C@H](CCCNC(=N)N)NC(=O)[C@H](CO)NC1=O)
2 | 12.5 nM | 15 nM | {Benzoyl(4-COOH)}-GICSRSLP[Oic]I[Pen]IPD-OH (disulfide 3-11; SMILES CC[C@H](C)[C@H](NC(=O)CNC(=O)c1ccc(C(=O)O)cc1)C(=O)N[C@H]1CSSC(C)(C)[C@@H](C(=O)N[C@H](C(=O)N2CCC[C@H]2C(=O)N[C@@H](CC(=O)O)C(=O)O)[C@@H](C)CC)NC(=O)[C@H]([C@@H](C)CC)NC(=O)[C@@H]2C[C@@H]3CCCC[C@@H]3N2C(=O)[C@@H]2CCCN2C(=O)[C@H](CC(C)C)NC(=O)[C@H](CO)NC(=O)[C@H](CCCNC(=N)N)NC(=O)[C@H](CO)NC1=O) [Example 490: (4-Carboxybenzoic acid)-GIC+SRSLP-(Oic)-I-(Pen)+IPD-OH]
3 | 44 nM | 42 nM | [Sar]ICSRS[tBuAla]PPI[Pen]IP-{PEG2-OH} (disulfide 3-11) [Example 498: ((N-Me)G)-IC+SRS-((tBu)A)-PPI-(Pen)+IP-(PEG1(10 atoms))-OH]
4 | 44 nM | 49 nM | [Sar]ICSRSLP[Oic]I[Pen]IPY-OH (disulfide 3-11; N-terminus assumed; SMILES CC[C@H](C)[C@H](NC(=O)CNC)C(=O)N[C@H]1CSSC(C)(C)[C@@H](C(=O)N[C@H](C(=O)N2CCC[C@H]2C(=O)N[C@@H](Cc2ccc(O)cc2)C(=O)O)[C@@H](C)CC)NC(=O)[C@H]([C@@H](C)CC)NC(=O)[C@@H]2C[C@@H]3CCCC[C@@H]3N2C(=O)[C@@H]2CCCN2C(=O)[C@H](CC(C)C)NC(=O)[C@H](CO)NC(=O)[C@H](CCCNC(=N)N)NC(=O)[C@H](CO)NC1=O) [Example 493: ((N-Me)G)-IC+SRSLP-(Oic)-I-(Pen)+IPY-OH]
5 | 240 nM | 42 nM | [Sar]ICSRSLP[Oic]I[Pen]IP[Freidinger's Lactam]-OH (disulfide 3-11; N-terminus assumed; SMILES CC[C@H](C)[C@H](NC(=O)CNC)C(=O)N[C@H]1CSSC(C)(C)[C@@H](C(=O)N[C@H](C(=O)N2CCC[C@H]2C(=O)N[C@@H]2CCN([C@@H](CC(C)C)C(=O)O)C2=O)[C@@H](C)CC)NC(=O)[C@H]([C@@H](C)CC)NC(=O)[C@@H]2C[C@@H]3CCCC[C@@H]3N2C(=O)[C@@H]2CCCN2C(=O)[C@H](CC(C)C)NC(=O)[C@H](CO)NC(=O)[C@H](CCCNC(=N)N)NC(=O)[C@H](CO)NC1=O) [Example 527: ((N-Me)G)-IC+SRSLP-(Oic)-I-(Pen)+IP-(Freidinger's Lactam)-OH]
6 | 45 nM | 66 nM | [Sar]ICSRSLP[Oic]I[Pen]IPG[dD]-OH (disulfide 3-11; N-terminus assumed; SMILES CC[C@H](C)[C@H](NC(=O)CNC)C(=O)N[C@H]1CSSC(C)(C)[C@@H](C(=O)N[C@H](C(=O)N2CCC[C@H]2C(=O)NCC(=O)N[C@H](CC(=O)O)C(=O)O)[C@@H](C)CC)NC(=O)[C@H]([C@@H](C)CC)NC(=O)[C@@H]2C[C@@H]3CCCC[C@@H]3N2C(=O)[C@@H]2CCCN2C(=O)[C@H](CC(C)C)NC(=O)[C@H](CO)NC(=O)[C@H](CCCNC(=N)N)NC(=O)[C@H](CO)NC1=O) [Example 495: ((N-Me)G)-IC+SRSLP-(Oic)-I-(Pen)+IPGd-OH]
7 | 65 nM | 81 nM | [Sar]ICSRSLP[Oic]I[Pen]IPT-OH (disulfide 3-11; N-terminus assumed; SMILES CC[C@H](C)[C@H](NC(=O)CNC)C(=O)N[C@H]1CSSC(C)(C)[C@@H](C(=O)N[C@H](C(=O)N2CCC[C@H]2C(=O)N[C@H](C(=O)O)[C@@H](C)O)[C@@H](C)CC)NC(=O)[C@H]([C@@H](C)CC)NC(=O)[C@@H]2C[C@@H]3CCCC[C@@H]3N2C(=O)[C@@H]2CCCN2C(=O)[C@H](CC(C)C)NC(=O)[C@H](CO)NC(=O)[C@H](CCCNC(=N)N)NC(=O)[C@H](CO)NC1=O) [Example 492: ((N-Me)G)-IC+SRSLP-(Oic)-I-(Pen)+IPT-OH]
8 | 420 nM | 8.2 nM | [dP]ICSRSLP[Oic]I[Pen]IP[Ida]-OH (disulfide 3-11; also: HCl salt) [Example 528: pIC+SRSLP-(Oic)-I-(Pen)+IP-(Ida)-OH (HCl salt)]
9 | 20 nM | 23 nM | {Benzoyl(3-COOH)}-GICSRSLP[Oic]I[Pen]IPD-OH (disulfide 3-11; SMILES CC[C@H](C)[C@H](NC(=O)CNC(=O)c1cccc(C(=O)O)c1)C(=O)N[C@H]1CSSC(C)(C)[C@@H](C(=O)N[C@H](C(=O)N2CCC[C@H]2C(=O)N[C@@H](CC(=O)O)C(=O)O)[C@@H](C)CC)NC(=O)[C@H]([C@@H](C)CC)NC(=O)[C@@H]2C[C@@H]3CCCC[C@@H]3N2C(=O)[C@@H]2CCCN2C(=O)[C@H](CC(C)C)NC(=O)[C@H](CO)NC(=O)[C@H](CCCNC(=N)N)NC(=O)[C@H](CO)NC1=O) [Example 491: (3-Carboxybenzoic acid)-GIC+SRSLP-(Oic)-I-(Pen)+IPD-OH]
10 | 41 nM | 36 nM | [(R)‑Piperidine‑3‑Carboxylic Acid]ICSRSLP[Oic]I[Pen]IPD-OH (disulfide 3-11) [Example 488: ((R)-Piperidine-3-Carboxylic Acid)-IC+SRSLP-(Oic)-I-(Pen)+IPD-OH]
11 | 730 nM | 100 nM | [Orn]ICSRS[X10]PPI[Pen]IPD-OH (disulfide 3-11; N-terminus assumed; SMILES CC[C@H](C)[C@H](NC(=O)[C@@H](N)CCCN)C(=O)N[C@H]1CSSC(C)(C)[C@@H](C(=O)N[C@H](C(=O)N2CCC[C@H]2C(=O)N[C@@H](CC(=O)O)C(=O)O)[C@@H](C)CC)NC(=O)[C@H]([C@@H](C)CC)NC(=O)[C@@H]2CCCN2C(=O)[C@@H]2CCCN2C(=O)[C@H](CSC(F)(F)F)NC(=O)[C@H](CO)NC(=O)[C@H](CCCNC(=N)N)NC(=O)[C@H](CO)NC1=O) [Example 529: (Orn)-IC+SRS-((2R)-2-amino-3-(trifluoromethylsulfanyl)propanoic acid)-PPI-(Pen)+IPD-OH]
12 | 26 nM | 74.1 nM | [Sar]ICSRS[tBuAla]P[X15]I[Pen]IPD-OH (disulfide 3-11; N-terminus assumed; SMILES CC[C@H](C)[C@H](NC(=O)CNC)C(=O)N[C@H]1CSSC(C)(C)[C@@H](C(=O)N[C@H](C(=O)N2CCC[C@H]2C(=O)N[C@@H](CC(=O)O)C(=O)O)[C@@H](C)CC)NC(=O)[C@H]([C@@H](C)CC)NC(=O)[C@@H]2CC3(CCCC3)CN2C(=O)[C@@H]2CCCN2C(=O)[C@H](CC(C)(C)C)NC(=O)[C@H](CO)NC(=O)[C@H](CCCNC(=N)N)NC(=O)[C@H](CO)NC1=O)
13 | 23.3 nM | 18.4 nM | [Sar]ICSRSLP[Oic]I[Pen]IP[(R)‑Pyrrolidine‑3‑acetic acid]-OH (disulfide 3-11; N-terminus assumed; SMILES CC[C@H](C)[C@H](NC(=O)CNC)C(=O)N[C@H]1CSSC(C)(C)[C@@H](C(=O)N[C@H](C(=O)N2CCC[C@H]2C(=O)N2CC[C@H](CC(=O)O)C2)[C@@H](C)CC)NC(=O)[C@H]([C@@H](C)CC)NC(=O)[C@@H]2C[C@@H]3CCCC[C@@H]3N2C(=O)[C@@H]2CCCN2C(=O)[C@H](CC(C)C)NC(=O)[C@H](CO)NC(=O)[C@H](CCCNC(=N)N)NC(=O)[C@H](CO)NC1=O) [Example 530: ((N-Me)G)-IC+SRSLP-(Oic)-I-(Pen)+IP-((R)-Pyrrolidine-3-acetic acid)-OH]
14 | 58 nM | 39 nM | [Sar]ICSRS[tBuAla]PPI[Pen]IP[Sar][Sar][Sar]-OH (disulfide 3-11; N-terminus assumed; SMILES CC[C@H](C)[C@H](NC(=O)CNC)C(=O)N[C@H]1CSSC(C)(C)[C@@H](C(=O)N[C@H](C(=O)N2CCC[C@H]2C(=O)N(C)CC(=O)N(C)CC(=O)N(C)CC(=O)O)[C@@H](C)CC)NC(=O)[C@H]([C@@H](C)CC)NC(=O)[C@@H]2CCCN2C(=O)[C@@H]2CCCN2C(=O)[C@H](CC(C)(C)C)NC(=O)[C@H](CO)NC(=O)[C@H](CCCNC(=N)N)NC(=O)[C@H](CO)NC1=O) [Example 497: ((N-Me)G)-IC+SRS-((tBu)A)-PPI-(Pen)+IP-((N-Me)G)-((N-Me)G)-((N-Me)G)-OH]
15 | 38 nM | 62 nM | [Sar]ICSRSLP[Oic]I[Pen]IPDA-OH (disulfide 3-11; N-terminus assumed; SMILES CC[C@H](C)[C@H](NC(=O)CNC)C(=O)N[C@H]1CSSC(C)(C)[C@@H](C(=O)N[C@H](C(=O)N2CCC[C@H]2C(=O)N[C@@H](CC(=O)O)C(=O)N[C@@H](C)C(=O)O)[C@@H](C)CC)NC(=O)[C@H]([C@@H](C)CC)NC(=O)[C@@H]2C[C@@H]3CCCC[C@@H]3N2C(=O)[C@@H]2CCCN2C(=O)[C@H](CC(C)C)NC(=O)[C@H](CO)NC(=O)[C@H](CCCNC(=N)N)NC(=O)[C@H](CO)NC1=O) [Example 494: ((N-Me)G)-IC+SRSLP-(Oic)-I-(Pen)+IPDA-OH]
16 | 31 nM | 31 nM | [Sar]ICSRS[tBuAla]PPI[Pen]IP-{PEG5‑CH2CO2H(18 atoms)-OH} (disulfide 3-11) [Example 496: ((N-Me)G)-IC+SRS-((tBu)A)-PPI-(Pen)+IP-(PEG5-CH2CO2H(18 atoms))-OH]
17 | 42 nM | 22 nM | [(S)‑Piperidine‑3‑Carboxylic Acid]ICSRSLP[Oic]I[Pen]IPD-OH (disulfide 3-11) [Example 489: ((S)-Piperidine-3-Carboxylic Acid)-IC+SRSLP-(Oic)-I-(Pen)+IPD-OH]
